Experimental data taken from article PMC9081242 (Structure (London, England : 1993), 2022).
Blank lines part the entries; values can stand above or below the molecule they belong to.

Experiments:
[1] = molecular target: cgCCM1 Q103R1 (complex N-linked glycans, spin-labelled) (human) (UniProt P13688); experiment: continuous-wave EPR
[2] = molecular target: gCCM1 Q103R1 (single GlcNAc modifications, spin-labelled) (human) (UniProt P13688); experiment: continuous-wave EPR
[3] = molecular target: CCM1 E5R1 (non-glycosylated, spin-labelled) (human) (UniProt P13688); experiment: continuous-wave EPR
[4] = molecular target: gCCM1 E5R1 (single GlcNAc modifications, spin-labelled) (human) (UniProt P13688); experiment: continuous-wave EPR
[5] = molecular target: cgCCM1 E5R1 (complex N-linked glycans, spin-labelled) (human) (UniProt P13688); experiment: continuous-wave EPR
[6] = molecular target: CCM1 D94R1 (non-glycosylated, spin-labelled) (human) (UniProt P13688); experiment: continuous-wave EPR
[7] = molecular target: CCM1 Q103R1 (non-glycosylated, spin-labelled) (human) (UniProt P13688); experiment: continuous-wave EPR
SEC = molecular target: the molecule itself; experiment: SEC

stoichiometry N [1]: 2
Molecule: cgCCM1 Q103R1 (complex N-linked glycans, spin-labelled) (from UniProt P13688 68-175) (domain or fragment)

stoichiometry N [2]: 2
Molecule: gCCM1 Q103R1 (single GlcNAc modifications, spin-labelled) (from UniProt P13688 68-175) (domain or fragment)

stoichiometry N [3]: 2
Molecule: CCM1 E5R1 (non-glycosylated, spin-labelled) (from UniProt P13688 69-175) (domain or fragment)

stoichiometry N [4]: 2
Molecule: gCCM1 E5R1 (single GlcNAc modifications, spin-labelled) (from UniProt P13688 68-175) (domain or fragment)

stoichiometry N [5]: 2
Molecule: cgCCM1 E5R1 (complex N-linked glycans, spin-labelled) (from UniProt P13688 68-175) (domain or fragment)

stoichiometry N [6]: 2
Molecule: CCM1 D94R1 (non-glycosylated, spin-labelled) (from UniProt P13688 69-175) (domain or fragment)

stoichiometry N [7]: 2
Molecule: CCM1 Q103R1 (non-glycosylated, spin-labelled) (from UniProt P13688 69-175) (domain or fragment)

B1: non-glycosylated CEACAM1 N-terminal Ig-like domain (CCM1) (domain or fragment, human, UniProt P13688 35-141, looked up)
chain: QLTTESMPFNVAEGKEVLLLVHNLPQQLFGYSWYKGERVDGNRQIVGYAIGTQQATPGPANSGRETIYPNASLLIQNVTQNDTGFYTLQVIKSDLVNEEATGQFHVY
stoichiometry N (SEC): 2
